B1: SH3BP2 peptide 410-425 (SH3 domain-binding protein 2), 16-mer library wild type / TNKS ANK (TNKS 12 ANK repeats, residues 174-649) (parent complex)
chain 1: LPHLQRSPPDGQSFRS
chain 2: TGVPAVSGALRELLEACRNGDVSRVKRLVDAANVNAKDMAGRKSSPLHFAAGFGRKDVVEHLLQMGANVHARDDGGLIPLHNACSFGHAEVVSLLLCQGADPNARDNWNYTPLHEAAIKGKIDVCIVLLQHGADPNIRNTDGKSALDLADPSAKAVLTGEYKKDELLEAARSGNEEKLMALLTPLNVNCHASDGRKSTPLHLAAGYNRVRIVQLLLQHGADVHAKDKGGLVPLHNACSYGHYEVTELLLKHGACVNAMDLWQFTPLHEAASKNRVEVCSLLLSHGADPTLVNCHGKSAVDMAPTPELRERLTYEFKGHSLLQAAREADLAKVKKTLALEIINFKQPQSHETALHCAVASLHPKRKQVTELLLRKGANVNEKNKDFMTPLHVAAERAHNDVMEVLHKHGAKMNALDTLGQTALHRAALAGHLQTCRLLLSYGSDPSIISLQGFTAAQMGNEAVQQILSESTPIRTSD

The variants in the assay derive from B1. In words: proteomic peptide phage display deep mutational scan (ProP-PD DMS): M13 P8 16-mer library selected against immobilised GST-tagged bait for four days (rounds), NGS of the eluted pools per day and pseudo-replica; bait immobilised on MaxiSorp plates (10 µg), library pre-cleared on GST, 2 h binding at 4 °C, five washes; one round per day, days 1-4; value from days 2 and 3.
For the variant chain 1 LPHPQRSPPDGQSFRS, the screen value was 0.00111 average fractional NGS count over selection days 2 and 3 (reads of this peptide / all reads for the bait, averaged over …. Turning to chain 1 LPHQQRSPPDGQSFRS, the screen value is 0.000264 average fractional NGS count over selection days 2 and 3 (reads of this peptide / all reads for the bait, averaged over …. For chain 1 LPHNQRSPPDGQSFRS, the screen value is 0.000501 average fractional NGS count over selection days 2 and 3 (reads of this peptide / all reads for the bait, averaged over …. Next, chain 1 LPHSQRSPPDGQSFRS: 0.000672 average fractional NGS count over selection days 2 and 3 (reads of this peptide / all reads for the bait, averaged over …; chain 1 LPHTQRSPPDGQSFRS: 0.000821 average fractional NGS count over selection days 2 and 3 (reads of this peptide / all reads for the bait, averaged over …; chain 1 LPHLQRSPPQGQSFRS: 0.00104 average fractional NGS count over selection days 2 and 3 (reads of this peptide / all reads for the bait, averaged over …. Next, chain 1 LPHLQRSPPVGQSFRS: 0.00049 average fractional NGS count over selection days 2 and 3 (reads of this peptide / all reads for the bait, averaged over …; chain 1 LPHLQRSPPPGQSFRS: 0.00059 average fractional NGS count over selection days 2 and 3 (reads of this peptide / all reads for the bait, averaged over …; chain 1 LPHLQRSPPEGQSFRS: 0.00381 average fractional NGS count over selection days 2 and 3 (reads of this peptide / all reads for the bait, averaged over ….

For the variant chain 1 LPHLQRSPPIGQSFRS, the screen value was 0.000221 average fractional NGS count over selection days 2 and 3 (reads of this peptide / all reads for the bait, averaged over …. Next, chain 1 LPHLQRSPPDGQHFRS: 0.00169 average fractional NGS count over selection days 2 and 3 (reads of this peptide / all reads for the bait, averaged over ….

chain 1 LPHLQRSPPDGQNFRS: the screen value was 0.000503 average fractional NGS count over selection days 2 and 3 (reads of this peptide / all reads for the bait, averaged over …. The value for chain 1 LPHLQRSPPDGQVFRS was 0.00486 average fractional NGS count over selection days 2 and 3 (reads of this peptide / all reads for the bait, averaged over …; that for chain 1 LPHLQRSPPDGQFFRS was 0.000366 average fractional NGS count over selection days 2 and 3 (reads of this peptide / all reads for the bait, averaged over …; that for chain 1 LPHLQRSPPDGQPFRS was 0.00144 average fractional NGS count over selection days 2 and 3 (reads of this peptide / all reads for the bait, averaged over …. Turning to chain 1 LPHLQRSPPDGQYFRS, the screen value is 0.00204 average fractional NGS count over selection days 2 and 3 (reads of this peptide / all reads for the bait, averaged over …. Take chain 1 LPHLQRSPPDGQSFKS: the screen value was 0.00112 average fractional NGS count over selection days 2 and 3 (reads of this peptide / all reads for the bait, averaged over …. The value for chain 1 LPHLQRSPPDGQSFQS was 0.000422 average fractional NGS count over selection days 2 and 3 (reads of this peptide / all reads for the bait, averaged over …. Next, chain 1 LPHLQRSPPDGQSFMS: 0.00237 average fractional NGS count over selection days 2 and 3 (reads of this peptide / all reads for the bait, averaged over …; chain 1 LPHLQRSPPDGQSFES: 0.0203 average fractional NGS count over selection days 2 and 3 (reads of this peptide / all reads for the bait, averaged over …. Next, chain 1 LPHLQRSPPDGQSFNS: 0.000839 average fractional NGS count over selection days 2 and 3 (reads of this peptide / all reads for the bait, averaged over …; chain 1 LPHLQRSPPDGQSFPS: 0.00212 average fractional NGS count over selection days 2 and 3 (reads of this peptide / all reads for the bait, averaged over …. Take chain 1 LPHLQRSPPDGQSFFS: the screen value was 0.000621 average fractional NGS count over selection days 2 and 3 (reads of this peptide / all reads for the bait, averaged over …. The value for chain 1 LPHLQRSPPDGQSFIS was 0.00013 average fractional NGS count over selection days 2 and 3 (reads of this peptide / all reads for the bait, averaged over …; that for chain 1 LPHLQRSPPDGQSFTS was 0.00759 average fractional NGS count over selection days 2 and 3 (reads of this peptide / all reads for the bait, averaged over …; that for chain 1 LPHLQRSPPDGQSFAS was 0.000604 average fractional NGS count over selection days 2 and 3 (reads of this peptide / all reads for the bait, averaged over …. Regarding chain 1 LPHLQRSPPDGQSFLS, the screen value was 0.000467 average fractional NGS count over selection days 2 and 3 (reads of this peptide / all reads for the bait, averaged over ….

In the case of chain 1 LPHLQRSPPDGQSFVS, the screen value is 0.00361 average fractional NGS count over selection days 2 and 3 (reads of this peptide / all reads for the bait, averaged over …. Next, chain 1 LPHLQRSPPDGQSFDS: 0.000883 average fractional NGS count over selection days 2 and 3 (reads of this peptide / all reads for the bait, averaged over …; chain 1 LPHLQRSPPDGQSPRS: 0.000325 average fractional NGS count over selection days 2 and 3 (reads of this peptide / all reads for the bait, averaged over …; chain 1 LPHLQRSPPDGQSHRS: 0.000634 average fractional NGS count over selection days 2 and 3 (reads of this peptide / all reads for the bait, averaged over …. The value for chain 1 LPHLQRSPPDGQSDRS was 0.000786 average fractional NGS count over selection days 2 and 3 (reads of this peptide / all reads for the bait, averaged over …; that for chain 1 LPHLQRSPPDGQSQRS was 0.000155 average fractional NGS count over selection days 2 and 3 (reads of this peptide / all reads for the bait, averaged over …. Next, chain 1 LPHLQRSPPDGQSVRS: 0.000585 average fractional NGS count over selection days 2 and 3 (reads of this peptide / all reads for the bait, averaged over …; chain 1 LPHLQRSPPDGQSSRS: 0.00286 average fractional NGS count over selection days 2 and 3 (reads of this peptide / all reads for the bait, averaged over …. Take chain 1 LPHLQRSPPDGQSARS: the screen value was 0.0212 average fractional NGS count over selection days 2 and 3 (reads of this peptide / all reads for the bait, averaged over …. Next, chain 1 LPHLQRSPPDGQSMRS: 0.0018 average fractional NGS count over selection days 2 and 3 (reads of this peptide / all reads for the bait, averaged over …; chain 1 LPHLQRSPPDGQSLRS: 0.000394 average fractional NGS count over selection days 2 and 3 (reads of this peptide / all reads for the bait, averaged over …; chain 1 LPHLQRNPPDGQSFRS: 0.00621 average fractional NGS count over selection days 2 and 3 (reads of this peptide / all reads for the bait, averaged over …. Consider chain 1 LPHLQRMPPDGQSFRS, for which the screen value is 0.00193 average fractional NGS count over selection days 2 and 3 (reads of this peptide / all reads for the bait, averaged over …. Next, chain 1 LPHLQRVPPDGQSFRS: 0.00627 average fractional NGS count over selection days 2 and 3 (reads of this peptide / all reads for the bait, averaged over …. On to chain 1 LPHLQRFPPDGQSFRS, for which the screen value was 0.00476 average fractional NGS count over selection days 2 and 3 (reads of this peptide / all reads for the bait, averaged over …. For chain 1 LPHLQRHPPDGQSFRS, the screen value is 0.000827 average fractional NGS count over selection days 2 and 3 (reads of this peptide / all reads for the bait, averaged over ….

In the case of chain 1 LPHLQRLPPDGQSFRS, the screen value is 0.00604 average fractional NGS count over selection days 2 and 3 (reads of this peptide / all reads for the bait, averaged over …. The value for chain 1 LPHLQRPPPDGQSFRS was 0.00153 average fractional NGS count over selection days 2 and 3 (reads of this peptide / all reads for the bait, averaged over …; that for chain 1 LPHLQRSTPDGQSFRS was 0.00538 average fractional NGS count over selection days 2 and 3 (reads of this peptide / all reads for the bait, averaged over …; that for chain 1 LPHLQRSNPDGQSFRS was 0.0021 average fractional NGS count over selection days 2 and 3 (reads of this peptide / all reads for the bait, averaged over ….

On to chain 1 LPHLQRSDPDGQSFRS, for which the screen value was 0.00888 average fractional NGS count over selection days 2 and 3 (reads of this peptide / all reads for the bait, averaged over …. In the case of chain 1 LPHLQRSLPDGQSFRS, the screen value was 0.00187 average fractional NGS count over selection days 2 and 3 (reads of this peptide / all reads for the bait, averaged over …. Next, chain 1 LPHLQRSMPDGQSFRS: 0.00437 average fractional NGS count over selection days 2 and 3 (reads of this peptide / all reads for the bait, averaged over …; chain 1 LPHLQRSQPDGQSFRS: 0.00268 average fractional NGS count over selection days 2 and 3 (reads of this peptide / all reads for the bait, averaged over …; chain 1 LPHLQRSHPDGQSFRS: 0.000697 average fractional NGS count over selection days 2 and 3 (reads of this peptide / all reads for the bait, averaged over …. Regarding chain 1 LPHLQRSSPDGQSFRS, the screen value was 0.000677 average fractional NGS count over selection days 2 and 3 (reads of this peptide / all reads for the bait, averaged over …. The value for chain 1 LPHLQRSYPDGQSFRS was 0.000667 average fractional NGS count over selection days 2 and 3 (reads of this peptide / all reads for the bait, averaged over ….

As for chain 1 LPHLQRSKPDGQSFRS, the screen value was 0.000693 average fractional NGS count over selection days 2 and 3 (reads of this peptide / all reads for the bait, averaged over ….

Regarding chain 1 LPHLQRSVPDGQSFRS, the screen value is 0.00324 average fractional NGS count over selection days 2 and 3 (reads of this peptide / all reads for the bait, averaged over ….

(Values after article PMC12102759 (2025).)
